Test results from US20250009878A1.

Biological target: WT MCT1/BSG-2 complex (mouse) (mouse) (UniProt P53986)
Assay: cell-based or functional assay

UniProt P53986, sequence (P53986 whole entry, chain 1 of 2): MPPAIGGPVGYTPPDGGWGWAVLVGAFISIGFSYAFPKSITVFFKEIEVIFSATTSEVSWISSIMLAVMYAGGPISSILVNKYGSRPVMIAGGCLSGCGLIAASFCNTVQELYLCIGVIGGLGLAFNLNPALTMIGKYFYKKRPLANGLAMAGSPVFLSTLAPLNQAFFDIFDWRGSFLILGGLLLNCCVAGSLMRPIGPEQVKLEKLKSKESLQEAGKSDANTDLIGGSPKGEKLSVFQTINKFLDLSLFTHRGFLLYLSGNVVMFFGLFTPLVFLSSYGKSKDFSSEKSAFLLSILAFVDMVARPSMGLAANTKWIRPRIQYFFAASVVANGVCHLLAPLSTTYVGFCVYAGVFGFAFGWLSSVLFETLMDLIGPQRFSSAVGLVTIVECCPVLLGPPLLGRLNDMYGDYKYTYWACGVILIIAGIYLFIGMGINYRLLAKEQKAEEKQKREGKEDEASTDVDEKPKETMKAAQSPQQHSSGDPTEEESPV
UniProt P53986, sequence (P18572 other isoform, or with tags, fused parts or gaps, chain 2 of 2, further chain): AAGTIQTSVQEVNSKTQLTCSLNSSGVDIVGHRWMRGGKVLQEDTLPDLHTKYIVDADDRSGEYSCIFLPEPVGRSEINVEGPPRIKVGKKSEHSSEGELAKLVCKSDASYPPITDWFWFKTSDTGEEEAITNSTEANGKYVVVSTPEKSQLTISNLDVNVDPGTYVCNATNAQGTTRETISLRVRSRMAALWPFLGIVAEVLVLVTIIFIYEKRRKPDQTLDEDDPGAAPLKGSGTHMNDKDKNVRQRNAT

decrease in transport activity (H+ influx, HPTS proteoliposome flux assay): 75%
B1: WZHAb10 (antibody, human IgG1, kappa, V domains shown)
VH: QVQLVQSGAEVKKPGASVKVSCKASGYTFTNYWIHWVRQAPGQGLEWMGMIHPNSGSINYNEKFKTRVTMTRDTSTSTVYMELSSLRSEDTAVYYCARVGSGSLDYWGQGTLVTVSS
VL: EIVLTQSPATLSLSPGERATLSCRASQSISDYLHWYQQKPGQAPRLLIKYVSQSISGIPARFSGSGSGTYFTLTISSLEPEDVAVYYCQNGEEAPYTFGQGTKLEIKR
